# Reference: patent publication US20130129739A1 (Bayer, published 2013)
# Substitutions are numbered along the chain they refer to. Where “and” joins values, the source holds several entries; their conditions need not be identical. Identical values can stand only once.
# T1: human prolactin receptor (PRLR) on cells (human, UniProt P16471 25-622)
# T1 sequence (looked up): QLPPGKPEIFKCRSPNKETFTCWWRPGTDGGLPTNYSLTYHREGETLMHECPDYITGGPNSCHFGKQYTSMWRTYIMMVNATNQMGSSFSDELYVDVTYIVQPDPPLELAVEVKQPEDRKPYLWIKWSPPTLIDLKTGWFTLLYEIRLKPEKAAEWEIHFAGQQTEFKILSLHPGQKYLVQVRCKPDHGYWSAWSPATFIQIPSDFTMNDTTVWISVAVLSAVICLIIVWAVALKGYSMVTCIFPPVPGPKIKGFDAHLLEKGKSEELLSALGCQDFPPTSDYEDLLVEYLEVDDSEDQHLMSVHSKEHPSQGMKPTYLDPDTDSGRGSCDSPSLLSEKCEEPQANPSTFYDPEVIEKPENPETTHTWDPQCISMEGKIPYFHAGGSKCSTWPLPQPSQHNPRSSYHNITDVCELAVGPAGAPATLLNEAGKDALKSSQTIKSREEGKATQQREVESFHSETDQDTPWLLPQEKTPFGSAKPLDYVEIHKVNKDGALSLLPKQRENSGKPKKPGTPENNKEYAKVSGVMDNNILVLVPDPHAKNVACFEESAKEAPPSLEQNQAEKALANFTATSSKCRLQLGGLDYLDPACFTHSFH
# T2: rat prolactin receptor (PRLR) on Nb2 lymphoma cells (rat, UniProt P05710 20-610)
# T2 construct: whole, on cells; also called rat PRLR
# T2 sequence (looked up): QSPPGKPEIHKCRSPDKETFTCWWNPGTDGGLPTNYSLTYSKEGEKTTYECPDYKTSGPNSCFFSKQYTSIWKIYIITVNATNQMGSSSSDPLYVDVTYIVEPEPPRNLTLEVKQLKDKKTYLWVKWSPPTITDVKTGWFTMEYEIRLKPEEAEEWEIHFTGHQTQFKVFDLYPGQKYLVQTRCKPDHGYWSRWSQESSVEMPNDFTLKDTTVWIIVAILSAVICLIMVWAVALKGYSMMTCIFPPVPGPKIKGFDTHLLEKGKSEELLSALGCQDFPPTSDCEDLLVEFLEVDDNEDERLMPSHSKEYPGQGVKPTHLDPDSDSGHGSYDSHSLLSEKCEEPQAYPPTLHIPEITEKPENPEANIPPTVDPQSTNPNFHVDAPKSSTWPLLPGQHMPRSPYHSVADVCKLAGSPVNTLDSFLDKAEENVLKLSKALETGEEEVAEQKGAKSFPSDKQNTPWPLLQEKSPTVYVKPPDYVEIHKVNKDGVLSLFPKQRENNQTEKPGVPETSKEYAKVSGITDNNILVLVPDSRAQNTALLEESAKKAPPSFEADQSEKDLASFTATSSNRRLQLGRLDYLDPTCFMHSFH
# T3: extracellular domain of human PRLR (monomeric, soluble) (human, UniProt P16471 25-234)
# T3 construct: also called ECD-PRLR; ECD of PRLR
# T3 sequence: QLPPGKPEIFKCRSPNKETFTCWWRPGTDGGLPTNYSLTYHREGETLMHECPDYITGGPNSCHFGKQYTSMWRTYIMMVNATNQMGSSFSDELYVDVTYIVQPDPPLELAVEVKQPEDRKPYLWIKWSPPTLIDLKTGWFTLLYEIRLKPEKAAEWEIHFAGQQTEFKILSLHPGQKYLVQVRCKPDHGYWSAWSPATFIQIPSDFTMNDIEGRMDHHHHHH
# T4: murine prolactin receptor (PRLR) on cells (mouse, UniProt Q08501 20-608)
# T4 sequence (looked up): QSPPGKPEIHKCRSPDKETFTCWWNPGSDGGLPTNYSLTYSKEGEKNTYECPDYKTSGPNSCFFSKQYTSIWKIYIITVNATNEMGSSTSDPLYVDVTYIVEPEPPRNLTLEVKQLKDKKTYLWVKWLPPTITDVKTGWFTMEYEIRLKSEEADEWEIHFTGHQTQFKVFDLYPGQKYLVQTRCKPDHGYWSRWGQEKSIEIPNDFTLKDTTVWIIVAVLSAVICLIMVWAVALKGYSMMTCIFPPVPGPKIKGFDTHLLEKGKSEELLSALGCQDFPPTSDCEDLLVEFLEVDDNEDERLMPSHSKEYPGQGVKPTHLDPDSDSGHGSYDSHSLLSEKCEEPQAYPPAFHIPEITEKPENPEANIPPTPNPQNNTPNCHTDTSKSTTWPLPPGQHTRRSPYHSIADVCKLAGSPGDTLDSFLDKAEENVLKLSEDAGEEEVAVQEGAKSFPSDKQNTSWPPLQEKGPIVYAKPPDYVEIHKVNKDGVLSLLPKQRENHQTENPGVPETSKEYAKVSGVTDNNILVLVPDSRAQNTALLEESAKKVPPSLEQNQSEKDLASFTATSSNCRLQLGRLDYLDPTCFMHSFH
# B1: 005-C04 (antibody, V domains shown)
# VH: EVQLLESGGGLVQPGGSLRLSCAASGFTFSSYWMHWVRQAPGKGLEWVSDISSASSYTNYADSVKGRFTISRDNSKNTLYLQMNSLRAEDTAVYYCARGLDARRMDYWGQGTLVTVSS
# VL: QSVLTQPPSASGTPGQRVTISCTGSSSNIGAGYVVHWYQQLPGTAPKLLIYRNNQRPSGVPDRFSGSKSGTSASLAISGLRSEDEADYYCAAWDDSLNGWLFGGGTKLTVLG
# notes: Tested as human IgG1; also called IgG1 005-C04; 005-004
# B2: XHA06.642 (antibody, V domains shown)
# VH: EVQLVESGGDLVKPGGSLKLSCAVSGFTFSSYGMSWVRQTPDKRLEWVATVSSGGTYTYYPDSVKGRFTISRDNAKNTLYLQMSSLKSEDSAMYYCARHRGNYYATYYYAMDYWGQGTSVTVSS
# VL: DIVLTQSPASLAVSLGQGATISCRASKSVSTSGYTYMHWYQQKPGQPPKLLIYLASNLESGVPARFSGSGSGTDFTLNIHPVEEEDAATYYCQHSGELPPSFGGGTKLEIKR
# notes: Novartis antibody (WO2008/022295)
# B3: 006-H08 (antibody, V domains shown)
# VH: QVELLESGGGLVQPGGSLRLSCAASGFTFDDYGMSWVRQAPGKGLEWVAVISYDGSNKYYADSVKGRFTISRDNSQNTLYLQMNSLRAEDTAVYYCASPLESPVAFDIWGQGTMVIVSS
# VL: DIVLTQPPSASGTPGQRVTISCSGSNSNIGSNPVNWYQQLPGTAPKLLIYDNNKRPSGVPDRFSGSKSGTSASLAISGLRSEDEADYYCQSYDTGLSGWVFGGGTKLTVLG
# notes: Tested as human IgG1; also called IgG1 006-H08
# B4: HE06.642 (antibody, V domains shown)
# VH: EVQLVESGGGLVQPGGSLRLSCAVSGFTFSSYGMSWVRQAPGKGLEWVATVSSGGTYTYYPDSVKGRFTISRDNSKNTLYLQMNSLRAEDTAVYYCARHRGNYYATYYYAMDYWGQGTLVTVSS
# VL: DIVLTQSPDSLAVSLGERATINCKASKSVSTSGYTYMHWYQQKPGQPPKLLIYLASNRESGVPDRFSGSGSGTDFTLTISPVQAEDVATYYCQHSGELPPSFGQGTKLEIKR
# notes: Human Engineered Novartis antibody (WO2008/022295); tested as human IgG1
# B5: 001-E06 (antibody, V domains shown)
# VH: QVELLESGGGLVQPGGSLRLSCAASGFTFSSYWMSWVRQAPGKGLEWVSSVSDTGTDTHYADSVKGRFTISRDNSKNTLYLQMNSLRAEDTAVYYCAKTPLAYSSGWYYFDYWGQGTLVTVSS
# VL: B3 VL with N26S, P33T, D51R, N53Y, K54Q, T94S, G95S, W99S
# notes: Tested as human IgG1
# B6: XHA06.983 (antibody, V domains shown)
# VH: DVQLVESGGGLVQPGGSRKLSCAASGFAFSSFGMQWVRQAPEKGLEWVAYISSGSSTIYYADTVKGRFTISRDNPKNTLFLQMTSLRSEDTAMYYCVRSGRDYWGQGTSVTVSS
# VL: SIVMTQTPKFLLVSAGDRVTITCKASQGVSNDVAWFQQKPGQSPKLLIYSASTRYTGVPDRLTGSGYGTDFTFTINTVQAEDLAVYFCQQDYTSPTFGGGTKLEIKR
# notes: as for B2
# B7: 006-H07 (antibody, V domains shown)
# VH: QVELLESGGGLVQPGGSLRLSCAASGFTFEDHGMSWVRQAPGKGLEWVSLISWDDGSNKYYADSVKGRFTISRDNSKNTLYLQMNSLRAEDTAVYYCATSLRATAFDTWGQGTLVTVSS
# VL: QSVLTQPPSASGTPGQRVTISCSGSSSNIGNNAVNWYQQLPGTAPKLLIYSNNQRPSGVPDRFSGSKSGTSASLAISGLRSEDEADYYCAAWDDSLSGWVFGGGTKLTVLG
# notes: Tested as human IgG1
# Columns and labels:
# [1] = biological target: T1, human prolactin receptor (PRLR) on cells; test: cell-based or functional assay
# [2] = biological target: T2, rat prolactin receptor (PRLR) on Nb2 …; test: FACS on rat lymphoma cell line Nb2, IgG1
# [3] = biological target: T1, human prolactin receptor (PRLR) on cells; test: FACS on human breast cancer cell line T47D, IgG1
# [4] = biological target: T3, extracellular domain of human PRLR …; test: SPR (Biacore), IgG1 directly immobilized, monomeric human PRLR ECD from HEK293 as analyte
# [5] = biological target: T2, rat prolactin receptor (PRLR) on Nb2 …; test: cell-based or functional assay
# [6] = biological target: T4, murine prolactin receptor (PRLR) on …; test: cell-based or functional assay
# [7] = biological target: T4, murine prolactin receptor (PRLR) on …; test: flow cytometry on HEK293 cells stably expressing murine PRLR, PE anti-human IgG, fixed 0.37 µg/ml IgG
# Procedure: In order to determine the binding characteristics of the anti-PRLR antibodies on mouse and human PRLR expressed on cells, binding was tested by flow cytometry on HEK293 cells stably expressing the human and murine PRLR, respectively. The cells as well as the parental HEK293 cell line without PRLR were harvested, centrifuged and resuspended at approximately 5×10⁶ cells/ml in 1×PBS containing 2% FBS and 0.1% sodium azide (FACS buffer). The antibodies 005-C04, 001-E06 and HE06.642 were diluted to 2-fold final concentration in FACS buffer and added to appropriate sample wells (50 μl/well). For secondary antibody and autofluorescence controls, 50 μl FACS buffer was added to appropriate wells. 50 μl of cell suspension was added to each sample well. Samples were incubated at 4° C. for one hour, washed twice with cold FACS buffer and resuspended in FACS buffer containing PE-conjugated goat anti-human IgG at a 1:100 dilution. Following a 30 min incubation at 4° C., cells were washed twice with cold FACS buffer, resuspended in FACS buffer containing […] propidium iodide (Invitrogen, San Diego, Calif.) and analyzed by flow cytometry. […] This observation is consistent with the finding reported in example 9 about the missing efficacy of HE06.642 in the murine PRLR-dependent luciferase reporter gene assay. […]
Binder,"IC50, inhibition of prolactin-activated Ba/F cell proliferation (human PRLR) [1]",EC50 [2] [nM],EC50 [3] [nM],Kd [4] [nM],koff [4] [s⁻¹],"IC50, inhibition of prolactin-induced rat lymphoma cell proliferation (NB2 cells) [5]","IC50, prolactin-activated luciferase reporter gene activity, HEK293 cells with mPRLR [6]","IC50, prolactin-activated luciferase reporter gene activity, HEK293 cells with hPRLR [1]",binding result [2],"IC50, inhibition of prolactin-activated Ba/F cell proliferation (murine PRLR) [6]",binding result [7]
B1,1.29 µg/ml and 8.6 nM,0.5,1.9,12.2,0.0093,,,,,,
B2,,1.1,1.5,1.2,0.00013,10 µg/ml and 67 nM,> 50 mg/ml and > 333 nM,,,,
B3,0.15 µg/ml and 1 nM,,1.3,0.7,0.00024,,,0.83 mg/ml and 5.5 nM,no binding,,
B4,0.34 µg/ml and 2.2 nM,0.9,1.8,0.3,0.00032,,,0.63 mg/ml and 4.2 nM,,> 30 mg/ml and > 200 nM,no binding (tested: 0.37 µg/ml)
B5,,1.2,1.8,15.8,0.0048,,,,,,
B6,,,0.3,0.2,0.00017,,,,no binding,,
B7,,,0.4,2,0.0013,,,,no binding,,
